Test results reported in article PMC10569748.
Values joined by “and” are separate entries in the source; they are usually repeats but may differ in a detail not shown here. Identical values can stand only once.

Columns and labels:
Cys25 [1] = target: Cys25 (UniProt position 158, GSCGSCWAFSA); test: chemical modification; conditions: free enzyme; cited from earlier work
His159 = His159 (UniProt position 292, GNKVDHAVAAV); test: chemical modification; conditions: free enzyme; cited from earlier work
[2] = test system: Cc1cc(=O)oc2cc(NC(=O)[C@H](C)NC(=O)[C@H](CCCNC(=N)N)NC(=O)OCc3ccccc3)ccc12; test: purified protein; conditions: pH 7.5, 25 °C, 2% DMSO, 5 mM DTT, 1 mM CHAPS, 1 mM EDTA
[3] = test system: Cc1cc(=O)oc2cc(NC(=O)[C@H](CCCNC(=N)N)NC(=O)[C@H](CCCNC(=N)N)NC(=O)OCc3ccccc3)ccc12; test: purified protein; conditions: pH 7.5, 25 °C, 2% DMSO, 5 mM DTT, 1 mM CHAPS, 1 mM EDTA
[4] = test system: Cc1cc(=O)oc2cc(NC(=O)[C@H](CCCNC(=N)N)NC(=O)[C@H](Cc3ccccc3)NC(=O)OCc3ccccc3)ccc12; test: purified protein; conditions: pH 7.5, 25 °C, 2% DMSO, 5 mM DTT, 1 mM CHAPS, 1 mM EDTA
Cys = test: kinetics; conditions: free enzyme; cited from earlier work
His = test: kinetics; conditions: free enzyme; cited from earlier work
His162 [5] = target: T1, His162 (UniProt position 284, SEQLDHGVLLV); test: NMR; conditions: Cys25 covalently modified by K11777; cited from earlier work
Cys25 [6] = target: T2, Cys25 (UniProt position 147, GQCGSCWAFSA); test: kinetics; conditions: 25 °C; 0.1 (constant); free enzyme (kcat/Km profile)
His162 [7] = target: T1, His162; test: kinetics; conditions: free enzyme (kcat/Km profile)
Cys25 [8] = target: T2, Cys25; test: chemical modification; conditions: 25 °C (general statement for all assays); ligand-free enzyme

Papain (Carica papaya)
pKa (Cys25 [1]): 4.0
pKa (His159): 8.4

cruzain (Trypanosoma cruzi)
Km [2]: 38 ± 2 µM
kcat [2]: 0.89 ± 0.06 s⁻¹
kcat/Km [2]: 23000 ± 3000 M⁻¹ s⁻¹
Km [3]: 3.7 ± 0.4 µM
kcat [3]: 7.2 ± 0.1 s⁻¹
kcat/Km [3]: 1.9e+06 ± 200000 M⁻¹ s⁻¹
Km [4]: 0.62 ± 0.02 µM
kcat [4]: 17 ± 2 s⁻¹
kcat/Km [4]: 2.7e+07 ± 4e+06 M⁻¹ s⁻¹

Cathepsin C (dipeptidyl peptidase I) (Homo sapiens)
pKa (Cys): 4.3
pKa (His): 6.5

Cruzain covalently complexed with K11777 (Trypanosoma cruzi)
pKa (His162 [5]): 5.2–5.3

Cruzain (cruzipain catalytic domain) (Trypanosoma cruzi)
pKa (Cys25 [6]): 9.6 ± 0.1
pKa (His162 [7]; 25 °C, 0.1 (constant), sticky substrate): 6.2 ± 0.4 and 6.0 ± 0.1
pKa (His162 [7]; 25 °C): 6.2 ± 0.1
pKa (His162 [7]; 40 °C): 5.9 ± 0.1
pKa (Cys25 [8]): 9.76 ± 0.04
